Assay results reported in the supplement of paper PMC5998384.

Assays:
HeLa Kyoto [1] = test: solubility in G1/S (NP-40 vs SDS abundance) (log2 ratio); higher = more soluble; conditions: cell cycle stage: G1/S
HeLa Kyoto [2] = test: thermal stability score vs G1/S (z-score of summed log2 fold changes over temperatures); higher = more thermally stable than in G1/S
HeLa Kyoto [3] = test: solubility change mitosis vs G1/S (difference of NP-40 vs SDS log2 ratios) (log2 ratio difference); higher = more soluble in mitosis
HeLa Kyoto [4] = test: melting temperature (median over replicates), in situ; higher = more thermally stable
[5] = cell cycle stage: early G1 (4.5 h after nocodazole release)
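Throughout, for melting temperature (median over replicates), in situ: HeLa Kyoto cells synchronized by double thymidine or nocodazole block, proteins quantified by TMT10plex mass spectrometry, three independent biological replicates.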
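Throughout, for solubility change mitosis vs G1/S (difference of NP-40 vs SDS log2 ratios): synchronized HeLa Kyoto cells (double thymidine block for G1/S, nocodazole release for mitosis), protein amounts in NP-40 versus SDS lysates quantified by mass spectrometry, three biological replicates.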
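Throughout, for solubility in G1/S (NP-40 vs SDS abundance): HeLa Kyoto cells arrested at G1/S by double thymidine block, proteins quantified by TMT10plex mass spectrometry in mild NP-40 versus SDS extracts, three biological replicates.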
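Throughout, for thermal stability score vs G1/S (z-score of summed log2 fold changes over temperatures): synchronized HeLa Kyoto cells, proteins quantified by TMT10plex mass spectrometry, three biological replicates, mitosis taken 0.5 h after nocodazole release, G1/S directly after double thymidine block.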

Row | Substance | solubility in G1/S (log2) (HeLa Kyoto [1]) | thermal stability score (HeLa Kyoto [2]; [5]) | thermal stability score (HeLa Kyoto [2]; cell cycle stage: mitosis) | solubility change mitosis (log2) (HeLa Kyoto [3]) | melting temperature (HeLa Kyoto [4]; cell cycle stage: G1/S) [°C] | melting temperature (HeLa Kyoto [4]; cell cycle stage: mitosis) [°C]
1 | MAVFRSGLLVLTTPLASLAPRLASILTSAARLVNHTLYVHLQPGMSLEGPAQPQSSPVQATFEVLDFITHLYAGADVHRHLDVRILLTNIRTKSTFLPPLPTSVQNLAHPPEVVLTDFQTLDGSQYNPVKQQLVRYATSCYSCCPRLASVLLYSDYGIGEVPVEPLDVPLPSTIRPASPVAGSPKQPVRGYYRGAVGGTFDRLHNAHKVLLSVACILAQEQLVVGVADKDLLKSKLLPELLQPYTERVEHLSEFLVDIKPSLTFDVIPLLDPYGPAGSDPSLEFLVVSEETYRGGMAINRFRLENDLEELALYQIQLLKDLRHTENEEDKVSSSSFRQRMLGNLLRPPYERPELPTCLYVIGLTGISGSGKSSIAQRLKGLGAFVIDSDHLGHRAYAPGGPAYQPVVEAFGTDILHKDGIINRKVLGSRVFGNKKQLKILTDIMWPIIAKLAREEMDRAVAEGKRVCVIDAAVLLEAGWQNLVHEVWTAVIPETEAVRRIVERDGLSEAAAQSRLQSQMSGQQLVEQSHVVLSTLWEPHITQRQVEKAWALLQKRIPKTHQALD [COASY] | 0.236 | 2.77 | 4.34 | -0.14 | 48.1 | 48.8
2 | SETX | -0.385 | 0.199 | 1.04 | 0.0473 | 49.9 | 51
3 | MESALPAAGFLYWVGAGTVAYLALRISYSLFTALRVWGVGNEAGVGPGLGEWAVVTGSTDGIGKSYAEELAKHGMKVVLISRSKDKLDQVSSEIKEKFKVETRTIAVDFASEDIYDKIKTGLAGLEIGILVNNVGMSYEYPEYFLDVPDLDNVIKKMININILSVCKMTQLVLPGMVERSKGAILNISSGSGMLPVPLLTIYSATKTFVDFFSQCLHEEYRSKGVFVQSVLPYFVATKLAKIRKPTLDKPSPETFVKSAIKTVGLQSRTNGYLIHALMGSIISNLPSWIYLKIVMNMNKSTRAHYLKKTKKN [HSD17B12] | 0.079 | -1.05 | -1.18 | -0.194 | 53.9 | 53.7
4 | MADGVDHIDIYADVGEEFNQEAEYGGHDQIDLYDDVISPSANNGDAPEDRDYMDTLPPTVGDDVGKGAAPNVVYTYTGKRIALYIGNLTWWTTDEDLTEAVHSLGVNDILEIKFFENRANGQSKGFALVGVGSEASSKKLMDLLPKRELHGQNPVVTPCNKQFLSQFEMQSRKTTQSGQMSGEGKAGPPGGSSRAAFPQGGRGRGRFPGAVPGGDRFPGPAGPGGPPPPFPAGQTPPRPPLGPPGPPGPPGPPPPGQVLPPPLAGPPNRGDRPPPPVLFPGQPFGQPPLGPLPPGPPPPVPGYGPPPGPPPPQQGPPPPPGPFPPRPPGPLGPPLTLAPPPHLPGPPPGAPPPAPHVNPAFFPPPTNSGMPTSDSRGPPPTDPYGRPPPYDRGDYGPPGREMDTARTPLSEAEFEEIMNRNRAISSSAISRAVSDASAGDYGSAIETLVTAISLIKQSKVSADDRCKVLISSLQDCLHGIESKSYGSGSRRERSRERDHSRSREKSRRHKSRSRDRHDDYYRERSRERERHRDRDRDRDRERDREREYRHR [CPSF6] | -0.195 | -1.57 | -2.72 | 0.0573 | 53 | 53.2
5 | MELFLAGRRVLVTGAGKGIGRGTVQALHATGARVVAVSRTQADLDSLVRECPGIEPVCVDLGDWEATERALGSVGPVDLLVNNAAVALLQPFLEVTKEAFDRSFEVNLRAVIQVSQIVARGLIARGVPGAIVNVSSQCSQRAVTNHSVYCSTKGALDMLTKVMALELGPHKIRVNAVNPTVVMTSMGQATWSDPHKAKTMLNRIPLGKFAEVEHVVNAILFLLSDRSGMTTGSTLPVEGGFWAC [DCXR] | 0.282 | -1.92 | -1.77 | -0.0268 | 57.7 | 55.7
6 | MATSATSPHAPGFPAEGRCGYYVEKKKRFCRMVVAAGKRFCGEHAGAAEEEDARKRILCPLDPKHTVYEDQLAKHLKKCNSREKPKPDFYIQDINAGLRDETEIPEQLVPISSLSEEQLEKLIKKLRKASEGLNSTLKDHIMSHPALHDALNDPKNGDSATKHLKQQASILGNIENLKLLGPRRCFVEFGAGKGKLSHWVDIALKDAEKVHFILVEKVTTRFKVDGKHRKKNSVFERLQIDIQHLCLNKIPVLREEKLPVVGIGKHLCGMATDLALRCLVETYAASFEERNEEPLAKRIKNDKTEKEIYTLAKEGNEKNVPEKWNPVAGIVIALCCHHRCDWRHYVGKEYFRALGLGAVEFHYFQRMSSWATCGMRKTSLETSNSTTKRQDNQNDDSEEHDDGGYRITDDGADCLPGLLSVEEKKKIGHLCKLLIDQGRIQYLQQKGFSPALQYYTDPLVSLENVLLTALPNHSSSPETTA [TRMT13] | 0.027 | 1.03 | 0.684 | -0.0657 | – | 50.3
7 | MAGFWVGTAPLVAAGRRGRWPPQQLMLSAALRTLKHVLYYSRQCLMVSRNLGSVGYDPNEKTFDKILVANRGEIACRVIRTCKKMGIKTVAIHSDVDASSVHVKMADEAVCVGPAPTSKSYLNMDAIMEAIKKTRAQAVHPGYGFLSENKEFARCLAAEDVVFIGPDTHAIQAMGDKIESKLLAKKAEVNTIPGFDGVVKDAEEAVRIAREIGYPVMIKASAGGGGKGMRIAWDDEETRDGFRLSSQEAASSFGDDRLLIEKFIDNPRHIEIQVLGDKHGNALWLNERECSIQRRNQKVVEEAPSIFLDAETRRAMGEQAVALARAVKYSSAGTVEFLVDSKKNFYFLEMNTRLQVEHPVTECITGLDLVQEMIRVAKGYPLRHKQADIRINGWAVECRVYAEDPYKSFGLPSIGRLSQYQEPLHLPGVRVDSGIQPGSDISIYYDPMISKLITYGSDRTEALKRMADALDNYVIRGVTHNIALLREVIINSRFVKGDISTKFLSDVYPDGFKGHMLTKSEKNQLLAIASSLFVAFQLRAQHFQENSRMPVIKPDIANWELSVKLHDKVHTVVASNNGSVFSVEVDGSKLNVTSTWNLASPLLSVSVDGTQRTVQCLSREAGGNMSIQFLGTVYKVNILTRLAAELNKFMLEKVTEDTSSVLRSPMPGVVVAVSVKPGDAVAEGQEICVIEAMKMQNSMTAGKTGTVKSVHCQAGDTVGEGDLLVELE [PCCA] | 0.0361 | -0.863 | -1.1 | -0.122 | 53.7 | 53.1
